Data: PMC11976344
Ends that are not written are not given here.

B1: BK1.3 (17-mer synthetic dimeric peptide derived from Evasin P672) (peptide)
peptide: YEDEDYEDFFKPVTCYF
modifications: also: dimer via disulfide between the Cys of the two copies

Assays:
[1] = biological target: CCL8 (UniProt P80075)
[2] = biological target: CCL8 (UniProt P80075); remark: listed apart in the source

Chain of UniProt P80075 (P80075 24-99): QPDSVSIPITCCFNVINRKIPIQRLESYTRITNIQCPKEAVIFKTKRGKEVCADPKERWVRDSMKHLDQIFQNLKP

Molecule | IC50 of inhibition of CCL8-induced THP1 cell migration [1] | IC50 of inhibition of CCL8-driven THP-1 cell migration (dose-response peptide titration) [2]
Evasin P672 (natural protein) | 4.6 to 10 nM | –
B1 | – | 4.2 nM
